Laboratory results from US20230340152A1 (published 2023).
Where a chain is given by its changes, count along the chain named. Names may count otherwise.

Key:
Experiment in all cases: SPR (ProteOn), CD73 variant immobilized on HTG chip
[1] = biological target: T1, Human CD73 K180A, His-tagged (human, UniProt P21589 27-549)
T1 sequence: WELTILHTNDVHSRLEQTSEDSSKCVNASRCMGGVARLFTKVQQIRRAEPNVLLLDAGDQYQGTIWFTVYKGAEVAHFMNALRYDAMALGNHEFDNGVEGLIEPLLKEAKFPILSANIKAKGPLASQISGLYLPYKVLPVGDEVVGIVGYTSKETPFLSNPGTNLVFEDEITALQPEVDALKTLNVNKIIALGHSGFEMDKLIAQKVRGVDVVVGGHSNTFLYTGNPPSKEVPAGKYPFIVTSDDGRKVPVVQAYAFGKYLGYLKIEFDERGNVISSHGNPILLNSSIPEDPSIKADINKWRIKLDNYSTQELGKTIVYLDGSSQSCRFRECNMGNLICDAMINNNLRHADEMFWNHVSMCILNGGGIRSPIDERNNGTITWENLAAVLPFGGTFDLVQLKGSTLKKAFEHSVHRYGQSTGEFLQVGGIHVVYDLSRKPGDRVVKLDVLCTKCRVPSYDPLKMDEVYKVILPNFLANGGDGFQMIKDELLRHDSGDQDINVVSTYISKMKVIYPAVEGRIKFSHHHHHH
Experimental: (§1) Binding of MEDI9447 to wild-type and mutant CD73 proteins was measured by surface plasmon resonance (SPR) using a ProteOn instrument (BioRad). CD73 crude cell supernatant protein samples were diluted to 3 µg/ml in PBS, 0.005% Tween-20, pH 7.4 (BioRad) and immobilized to ~400 RU on a HTG tris-NTA sensor chip (BioRad) pre-activated with 10 mM NiSO₄, 10 mM MES, pH 6.0 (BioRad). An equivalently diluted crude cell supernatant sample from non-transfected cells was included as a reference channel control. Sensorgrams were recorded by flowing two-fold dilutions of MEDI9447 prepared in PBS, 0.005% Tween-20, pH 7.4, ranging from 5 nM to 0.31 nM. […] Antibody binding was measured at a flow rate of 100 µL/min with a 3 min association phase and 20 min dissociation phase. The sensor chip surface was regenerated between each run by an 800 s injection of 300 mM EDTA, pH 8.5 (BioRad) at a flow rate of 30 µL/min. Binding kinetics were analyzed using the ProteOn data analysis software. Double referencing was performed and, unless noted otherwise, a 1:1 Langmuir binding model was utilized to fit the data. Some CD73 variants containing mutations within the amino acid region 171-188 fit poorly to a 1:1 model (i.e., Chi² values >10% of Rmax). Where noted, these variants were fit with a heterogenous antigen (2:1) model. […] Due to the assay format (antigen immobilized) and the dimeric state of CD73, KD values may be exaggerated due to avidity effects. However, it is not anticipated that this impacts ranking of MEDI9447 binding to the different CD73 variants.

[2] = biological target: T2, Human CD73 K180A+N185G, His-tagged (human, UniProt P21589 27-549)
T2 chain: T1 sequence with N185G
Experimental: as §1

KO_Linker CD73 chimera = biological target: T3, KO_Linker CD73 chimera (human; chicken, UniProt P21589 27-553)
T3 construct: also called KO_292-310; linker region-swapped CD73
T3 chain: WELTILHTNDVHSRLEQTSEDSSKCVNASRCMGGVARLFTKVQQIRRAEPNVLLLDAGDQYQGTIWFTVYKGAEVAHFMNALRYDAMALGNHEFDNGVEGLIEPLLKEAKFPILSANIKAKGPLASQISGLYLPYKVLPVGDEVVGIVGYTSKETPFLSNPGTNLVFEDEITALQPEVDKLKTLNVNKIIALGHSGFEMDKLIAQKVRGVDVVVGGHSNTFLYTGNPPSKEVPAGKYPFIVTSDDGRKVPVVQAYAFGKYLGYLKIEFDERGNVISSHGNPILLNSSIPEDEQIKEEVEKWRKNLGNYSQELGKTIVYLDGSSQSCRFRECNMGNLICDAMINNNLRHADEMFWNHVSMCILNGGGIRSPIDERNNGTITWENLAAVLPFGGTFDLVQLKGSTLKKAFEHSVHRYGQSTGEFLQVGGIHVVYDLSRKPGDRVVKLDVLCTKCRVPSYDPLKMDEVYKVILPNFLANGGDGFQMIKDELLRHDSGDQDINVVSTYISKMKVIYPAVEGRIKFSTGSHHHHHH
Experimental: as §1

B1: MEDI9447 (antibody, human IgG1, lambda, V domains shown)
VH: EVQLLESGGGLVQPGGSLRLSCAASGFTFSSYAYSWVRQAPGKGLEWVSAISGSGGRTYYADSVKGRFTISRDNSKNTLYLQMNSLRAEDTAVYYCARLGYGRVDEWGRGTLVTVSS
VL: QSVLTQPPSASGTPGQRVTISCSGSLSNIGRNPVNWYQQLPGTAPKLLIYLDNLRLSGVPDRFSGSKSGTSASLAISGLQSEDEADYYCATWDDSHPGWTFGGGTKLTVLG
notes: Human IgG1-TM (L234F, L235E, P331S), lambda light chain; also called clone 10.3 antibody; 73combo3
- koff [1]: 0.000154 s⁻¹
- kon [1]: 3.45e+06 M⁻¹ s⁻¹
- binding result [2]: no binding
- Kd (KO_Linker CD73 chimera): 4.14 pM
- koff (KO_Linker CD73 chimera): 2.31e-05 s⁻¹
- kon (KO_Linker CD73 chimera): 5.7e+06 M⁻¹ s⁻¹
